# T1: Pfs48/45, endogenous, from P. falciparum stage V gametocytes (Plasmodium falciparum NF54 (NF54/iGP2 …))
# T1 construct: Pfs48/45 of Plasmodium falciparum, three 6-cysteine domains (D1-D3), migrates at about 50 kDa; residues 28-428 fitted in the cryo-EM model; also called P48/45; source: endogenous, P. falciparum NF54/iGP2 Pfs230FL stage V gametocytes; co-purified with Pfs230 (StrepTactin XT, SEC) and in parasite lysate
# T1 chain: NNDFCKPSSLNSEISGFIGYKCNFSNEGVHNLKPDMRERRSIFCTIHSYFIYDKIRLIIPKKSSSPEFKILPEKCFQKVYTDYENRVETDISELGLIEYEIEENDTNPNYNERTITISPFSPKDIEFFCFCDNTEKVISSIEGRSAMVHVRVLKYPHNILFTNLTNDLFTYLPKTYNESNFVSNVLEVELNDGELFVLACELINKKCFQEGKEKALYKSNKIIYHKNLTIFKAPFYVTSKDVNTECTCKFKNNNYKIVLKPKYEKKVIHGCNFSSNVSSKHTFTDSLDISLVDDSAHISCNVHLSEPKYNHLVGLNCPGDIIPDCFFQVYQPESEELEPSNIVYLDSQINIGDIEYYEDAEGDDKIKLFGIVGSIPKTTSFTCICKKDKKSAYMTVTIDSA
# Tests used:
# [1] = target: T1, Pfs48/45, endogenous, from P. …; experiment: pull-down; settings: one partner purified
# [2] = target: recombinant Pfs230 D5D6 (T1281-G1549) (Plasmodium falciparum 3D7, UniProt P68874); experiment: BLI; settings: both partners purified
# recombinant Pfs230 D5D6 (T1281-G1549), sequence (P68874 1281-1549): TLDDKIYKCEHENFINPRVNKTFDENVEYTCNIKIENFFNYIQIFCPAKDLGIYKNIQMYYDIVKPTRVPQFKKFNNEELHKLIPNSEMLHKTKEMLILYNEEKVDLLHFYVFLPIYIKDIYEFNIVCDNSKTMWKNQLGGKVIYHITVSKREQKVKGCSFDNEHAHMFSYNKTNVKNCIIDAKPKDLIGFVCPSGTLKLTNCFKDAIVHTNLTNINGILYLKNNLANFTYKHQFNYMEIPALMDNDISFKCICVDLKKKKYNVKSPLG
# [3] = target: recombinant Pfs230 D11D12 (D2446-T2818) (Plasmodium falciparum 3D7, UniProt P68874); experiment: BLI; settings: both partners purified
# recombinant Pfs230 D11D12 (D2446-T2818), sequence (P68874 2446-2818, one chain of several): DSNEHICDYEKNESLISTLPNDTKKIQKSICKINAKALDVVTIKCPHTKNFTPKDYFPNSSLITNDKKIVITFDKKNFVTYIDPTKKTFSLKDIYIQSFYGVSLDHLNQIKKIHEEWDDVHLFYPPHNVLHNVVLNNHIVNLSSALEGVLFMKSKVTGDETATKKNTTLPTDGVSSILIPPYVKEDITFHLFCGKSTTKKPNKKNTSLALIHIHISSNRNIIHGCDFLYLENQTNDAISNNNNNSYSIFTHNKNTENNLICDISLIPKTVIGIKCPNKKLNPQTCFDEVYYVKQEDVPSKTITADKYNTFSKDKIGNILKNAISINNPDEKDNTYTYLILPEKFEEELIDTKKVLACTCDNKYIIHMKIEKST
# recombinant Pfs230 D1D2 = recombinant Pfs230 D1D2 (Plasmodium falciparum 3D7/NF54, UniProt P68874); experiment: BLI; settings: both partners purified
# [4] = target: Pfs230, endogenous, in fixed NF54/iGP2 stage V gametocytes (Plasmodium falciparum (endogenous in …, UniProt P68874)); experiment: immunostaining of cells or tissue; settings: one partner purified
# Pfs230, endogenous, in fixed NF54/iGP2 stage V gametocytes (Plasmodium falciparum, sequence (P68874 21-3135): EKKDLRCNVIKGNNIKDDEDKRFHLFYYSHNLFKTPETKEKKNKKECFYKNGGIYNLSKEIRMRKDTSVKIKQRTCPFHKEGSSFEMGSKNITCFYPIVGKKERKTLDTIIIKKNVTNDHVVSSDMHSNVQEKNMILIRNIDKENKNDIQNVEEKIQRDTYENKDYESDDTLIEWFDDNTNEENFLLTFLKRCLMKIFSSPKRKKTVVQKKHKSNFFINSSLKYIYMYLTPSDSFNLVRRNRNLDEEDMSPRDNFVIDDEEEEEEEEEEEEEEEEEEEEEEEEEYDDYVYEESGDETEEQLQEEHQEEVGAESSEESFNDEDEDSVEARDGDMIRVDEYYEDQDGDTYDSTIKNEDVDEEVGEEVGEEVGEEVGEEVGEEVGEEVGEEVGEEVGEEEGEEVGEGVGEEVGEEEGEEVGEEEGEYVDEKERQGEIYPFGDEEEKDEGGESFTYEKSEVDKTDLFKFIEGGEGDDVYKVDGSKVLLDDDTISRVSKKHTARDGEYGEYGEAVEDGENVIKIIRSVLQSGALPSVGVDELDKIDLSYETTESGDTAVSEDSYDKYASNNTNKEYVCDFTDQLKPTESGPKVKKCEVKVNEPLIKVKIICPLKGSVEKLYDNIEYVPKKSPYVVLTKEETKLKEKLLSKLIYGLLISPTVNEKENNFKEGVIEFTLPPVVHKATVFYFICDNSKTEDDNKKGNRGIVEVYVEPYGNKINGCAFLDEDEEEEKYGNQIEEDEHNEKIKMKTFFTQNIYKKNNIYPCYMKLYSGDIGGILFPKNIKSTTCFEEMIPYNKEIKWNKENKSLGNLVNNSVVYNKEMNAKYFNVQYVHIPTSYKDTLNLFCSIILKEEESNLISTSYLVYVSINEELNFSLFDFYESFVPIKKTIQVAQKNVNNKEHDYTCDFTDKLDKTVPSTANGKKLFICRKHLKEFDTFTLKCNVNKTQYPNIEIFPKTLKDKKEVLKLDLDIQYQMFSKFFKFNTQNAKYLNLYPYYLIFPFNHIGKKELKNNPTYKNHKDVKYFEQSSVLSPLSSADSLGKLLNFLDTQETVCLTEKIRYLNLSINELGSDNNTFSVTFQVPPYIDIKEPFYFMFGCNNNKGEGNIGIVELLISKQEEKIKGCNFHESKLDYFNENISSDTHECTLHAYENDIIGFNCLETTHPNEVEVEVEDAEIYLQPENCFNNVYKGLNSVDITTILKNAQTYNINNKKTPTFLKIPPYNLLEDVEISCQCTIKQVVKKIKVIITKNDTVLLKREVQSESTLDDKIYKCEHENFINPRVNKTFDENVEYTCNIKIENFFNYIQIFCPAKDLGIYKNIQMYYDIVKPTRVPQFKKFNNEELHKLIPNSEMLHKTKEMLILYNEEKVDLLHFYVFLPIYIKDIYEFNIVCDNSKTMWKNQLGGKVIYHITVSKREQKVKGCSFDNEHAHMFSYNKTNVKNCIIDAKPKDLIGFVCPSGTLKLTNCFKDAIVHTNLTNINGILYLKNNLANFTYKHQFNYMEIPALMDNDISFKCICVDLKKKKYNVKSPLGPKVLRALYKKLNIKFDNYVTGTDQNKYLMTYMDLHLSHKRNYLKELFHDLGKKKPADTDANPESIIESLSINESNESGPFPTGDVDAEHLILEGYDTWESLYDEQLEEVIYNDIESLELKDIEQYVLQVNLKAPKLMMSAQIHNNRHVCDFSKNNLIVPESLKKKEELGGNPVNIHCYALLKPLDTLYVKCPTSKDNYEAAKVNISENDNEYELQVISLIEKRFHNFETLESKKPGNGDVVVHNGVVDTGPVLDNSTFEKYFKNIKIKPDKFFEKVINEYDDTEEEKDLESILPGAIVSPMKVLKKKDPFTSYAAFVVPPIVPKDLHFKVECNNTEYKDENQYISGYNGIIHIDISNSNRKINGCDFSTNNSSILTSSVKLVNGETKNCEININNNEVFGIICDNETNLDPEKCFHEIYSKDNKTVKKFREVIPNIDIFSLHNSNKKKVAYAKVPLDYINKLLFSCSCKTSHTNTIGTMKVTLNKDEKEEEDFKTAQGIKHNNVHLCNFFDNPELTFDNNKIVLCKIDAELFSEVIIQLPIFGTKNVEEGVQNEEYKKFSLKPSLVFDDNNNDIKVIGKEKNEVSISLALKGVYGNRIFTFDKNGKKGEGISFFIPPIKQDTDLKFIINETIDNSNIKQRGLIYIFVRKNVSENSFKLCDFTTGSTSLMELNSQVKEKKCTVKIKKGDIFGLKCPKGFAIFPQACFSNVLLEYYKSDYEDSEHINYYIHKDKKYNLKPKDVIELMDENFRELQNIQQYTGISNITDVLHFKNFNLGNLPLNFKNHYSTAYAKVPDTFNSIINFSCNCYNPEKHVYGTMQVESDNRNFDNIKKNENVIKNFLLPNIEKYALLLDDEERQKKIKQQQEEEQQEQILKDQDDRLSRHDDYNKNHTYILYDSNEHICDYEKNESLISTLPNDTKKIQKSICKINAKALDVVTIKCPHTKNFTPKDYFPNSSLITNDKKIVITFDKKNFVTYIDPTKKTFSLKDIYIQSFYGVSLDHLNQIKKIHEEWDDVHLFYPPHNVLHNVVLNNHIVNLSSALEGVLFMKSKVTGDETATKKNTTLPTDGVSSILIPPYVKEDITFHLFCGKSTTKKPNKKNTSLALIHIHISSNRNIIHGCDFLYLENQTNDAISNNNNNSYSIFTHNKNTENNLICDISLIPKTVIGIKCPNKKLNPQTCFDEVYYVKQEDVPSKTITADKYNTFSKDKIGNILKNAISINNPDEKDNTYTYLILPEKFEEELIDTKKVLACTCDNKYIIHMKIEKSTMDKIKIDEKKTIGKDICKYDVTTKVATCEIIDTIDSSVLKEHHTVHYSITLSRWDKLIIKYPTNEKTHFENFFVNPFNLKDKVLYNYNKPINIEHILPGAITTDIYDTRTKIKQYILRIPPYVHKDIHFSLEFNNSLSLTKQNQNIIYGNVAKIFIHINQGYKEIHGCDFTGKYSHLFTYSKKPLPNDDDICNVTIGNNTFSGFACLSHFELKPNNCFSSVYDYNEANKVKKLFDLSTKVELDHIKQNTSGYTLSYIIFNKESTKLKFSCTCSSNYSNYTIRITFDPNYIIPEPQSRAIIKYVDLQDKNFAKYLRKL
Binder,binding result [1],binding result [2],binding result [3],binding result (recombinant Pfs230 D1D2),binding result [4]
"anti-Pfs48/45 monoclonal antibody TB31F (antibody, V domains shown) VH: EVQLVQSGGGLVQPGGSLRLSCAASGFTFNNYWMSWVRQAPGKGLEWVSSISNIGGTIYYPDSVKGRFTISRDNSKNTLYLQMNSLRAEDTAVYYCTRDLRMSDYFDYWGQGTMVTVSS VL: NFMLTQPHSVSESPGKTVTISCTRSTGNIGSNYVSWYQQRPGSSPTTVIYRDDQRPSGVPDRFSGSIDRSSNSASLTISGLKTEDEADYYCHSYSTGMYIFGGGTKLTVL",binds,–,–,–,–
nanobody W2809 (VHH) VHH: QVQLQESGGGLVQAGGSLRLSCAASEHTFRDYAMGWFRQAPGKEREFVAAISWSGSIKYYADSVKGRFTISRDNAKRTQYLQMSSLKPEDTAVYYCAARWPGGGMWYEPPYDYWGQGTQVTVSS,–,no binding,no binding,no binding,–
nanobody W2810 (VHH) VHH: QVQLQESGGGLVQAGGSLRLSCAASGRTFSSYAMGWFHQAPGKEREFVASISWSGGSIRYADSVKGRFTVSRDNAKNTAYLQMNSLKPEDTGVYYCAAGPYSSDYGGFGSWGQGTQVTVSS,–,no binding (tested: 100 nM),no binding (tested: 100 nM),no binding (tested: 100 nM),binds
nanobody W2812 (VHH) VHH: QVQLQESGGGLVQPGGSLRLSCAASGRTFSSYMMAWFRQSQGNERELVAGLTRSGVSAYYADSVKGRFTISRDNAKNTVYLQMNSLKPKDTAVYYCAAASTTYINHIYTNPSNYPHWGPGTQVTVSS,–,no binding (tested: 100 nM),no binding (tested: 100 nM),no binding (tested: 100 nM),binds
